{
  "source": "paper PMC9691347",
  "about": "“C9orf72 regulates the unfolded protein response and stress granule formation by interacting with eIF2α” (Theranostics, 2022)",
  "binders": {"B1": {"name": "GST-tagged C9orf72 short protein isoform (GST-C9S) (natural protein, human, UniProt Q96LT7-2 1-222, looked up)", "chain": "MSTLCPPPSPAVAKTEIALSGKSPLLAATFAYWDNILGPRVRHIWAPKTEQVLLSDGEITFLANHTLNGEILRNAESGAIDVKFFVLSEKGVIIVSLIFDGNWNGDRSTYGLSIILPQTELSFYLPLHRVCVDRLTHIIRKGRIWMHKERQENVQKIILEGTERMEDQGQSIIPMLTGEVIPVMELLSSMKSHSVPEEIDIADTVLNDDDIGDSCHEGFLLK", "notes": "human C9orf72 short protein isoform, 222 aa, encoded by exons 2-5; pGEX-6P-1 vector; source: Rosetta E. coli, purified (glutathione magnetic beads)"}},
  "target": "T1, MBP-tagged eIF2α (MBP-eIF2α) (human, UniProt P05198 1-315)",
  "T1 construct": "full-length human EIF2S1 cDNA in pMAL-c2x; source: Rosetta E. coli, purified (dextrin beads 6FF)",
  "T1 sequence (P05198 whole entry)": "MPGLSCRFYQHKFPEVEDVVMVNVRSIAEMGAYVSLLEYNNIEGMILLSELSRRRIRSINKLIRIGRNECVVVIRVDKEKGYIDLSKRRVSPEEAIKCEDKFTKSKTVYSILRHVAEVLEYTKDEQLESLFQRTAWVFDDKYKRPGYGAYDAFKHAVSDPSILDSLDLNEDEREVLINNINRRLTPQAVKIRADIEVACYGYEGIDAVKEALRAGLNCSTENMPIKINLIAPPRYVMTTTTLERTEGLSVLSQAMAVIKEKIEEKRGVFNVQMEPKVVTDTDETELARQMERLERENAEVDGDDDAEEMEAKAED",
  "experiment": "pull-down; 0.5 µg purified GST or GST-tagged proteins on glutathione magnetic beads, incubated with 0.5 µg purified MBP or MBP-eIF2α for 4 h at 4°C; six washes with 400 mM NaCl, 0.5% Triton X-100; western blot",
  "conditions": "both partners purified",
  "data": [
    {"binder": "B1", "values": [
      {"measurement": "binding result", "result": "binds"}
    ]}
  ]
}
